Results: US12161669

How the values were obtained:
[1] = molecular target: RhoB GTPase, recombinant (full length RhoB with the C-terminal CKVL motif deleted, six-HIS tag, expressed in E. coli) (UniProt P62745); test: BLI (BLItz), RhoB immobilised on Ni-NTA biosensor, B30.2 domain in solution, 1:1 fit, no pAg
[2] = molecular target: RhoB GTPase, recombinant (full length RhoB with the C-terminal CKVL motif deleted, six-HIS tag, expressed in E. coli) (UniProt P62745); test: BLI (BLItz), RhoB immobilised on Ni-NTA biosensor, B30.2 domain in solution, 1:1 fit, no pAg; kd(1/Ms) [sic]
[3] = molecular target: RhoB GTPase, recombinant (full length RhoB with the C-terminal CKVL motif deleted, six-HIS tag, expressed in E. coli) (UniProt P62745); test: BLI (BLItz), RhoB immobilised on Ni-NTA biosensor, BFI in solution, 1:1 fit, no pAg
[4] = molecular target: RhoB GTPase, recombinant (full length RhoB with the C-terminal CKVL motif deleted, six-HIS tag, expressed in E. coli) (UniProt P62745); test: BLI (BLItz), RhoB immobilised on Ni-NTA biosensor, BFI in solution with the phosphoantigen cHDMAPP at 1:1
[5] = molecular target: RhoB GTPase, recombinant (full length RhoB with the C-terminal CKVL motif deleted, six-HIS tag, expressed in E. coli) (UniProt P62745); test: BLI (BLItz), RhoB immobilised on Ni-NTA biosensor, BFI in solution, 1:1 fit, no pAg; kd(1/Ms) [sic]
[6] = molecular target: RhoB GTPase, recombinant (full length RhoB with the C-terminal CKVL motif deleted, six-HIS tag, expressed in E. coli) (UniProt P62745); test: BLI (BLItz), RhoB immobilised on Ni-NTA biosensor, BFI in solution with the phosphoantigen cHDMAPP at 1:1; kd(1/Ms) [sic]

| Kd [1] [µM] | koff [1] [s⁻¹] | kon [2] [M⁻¹ s⁻¹] | Kd [3] [µM] | koff [3] [s⁻¹] | Kd [4] [µM] | koff [4] [s⁻¹] | kon [5] [M⁻¹ s⁻¹] | kon [6] [M⁻¹ s⁻¹] | Substance |
| --- | --- | --- | --- | --- | --- | --- | --- | --- | --- |
| 102 | 0.206 | 2020 | – | – | – | – | – | – | BTN3A1 (CD277) B30.2 domain, recombinant (from UniProt O00481 328-513) (receptor) |
| – | – | – | 19.7 | 0.0435 | 666 | 0.115 | 2200 | 172 | BTN3A1 (CD277) full-length intracellular domain, recombinant (from UniProt O00481 272-513) (receptor) |
